In patent publication US20260242489A1 (HUAHUI HEALTH, published 2026):

Key:
[1] = biological target: T1, hEGFR ECR-His6-Avi-Biotin (human, UniProt P00533 25-642, biotinylated on the Avi tag using BirA ligase); assay: ELISA: hEGFR ECR on plate, IgG1 titrated, anti-hFc-HRP; pH 6.0 [right panel]
T1 construct: also called WT hEGFR ECR; human EGFR ECD; not shown: His6-Avi tag

[2] = biological target: T1, hEGFR ECR-His6-Avi-Biotin; assay: ELISA: hEGFR ECR on plate, IgG1 titrated, anti-hFc-HRP; pH 7.4 [right panel]
Source text: Then antibody-hEGFR binding was detected with an HRP-conjugated anti-hFc secondary antibody.

[3] = biological target: T1, hEGFR ECR-His6-Avi-Biotin; assay: IgG1 ELISA on hEGFR ECR, pH 6.5 and pH 7.4
[4] = biological target: T1, hEGFR ECR-His6-Avi-Biotin; assay: ELISA: hEGFR ECR on plate, IgG1 titrated, anti-hFc-HRP; pH 7.4 [table]
[5] = biological target: T1, hEGFR ECR-His6-Avi-Biotin; assay: ELISA: hEGFR ECR on plate, IgG1 titrated, anti-hFc-HRP; pH 6.5 [table]
[6] = biological target: T2, mEGFR ECR (His6-Avi-tagged) (mouse, UniProt Q01279 25-644); assay: SPR (Biacore T200), antibody captured, mEGFR ECR analyte, steady-state affinity model, pH 7.4
T2 construct: also called mouse EGFR; not shown: His6-Avi tag

[7] = biological target: T3, human EGFR, full-length, on A-431 cells or CT26-hEGFR cells (human, UniProt P00533 25-1210); assay: flow cytometry on CT26-hEGFR cells, pH 6.5
T3 construct: A-431 cells (own EGFR) and mouse CT26 cells transfected with human EGFR; the cell line is named under assay
Procedure: (§1) Antibody binding to cells was then assessed based on the fluorescence intensity for FITC.

[8] = biological target: T2, mEGFR ECR (His6-Avi-tagged); assay: SPR (Biacore T200), antibody captured, mEGFR ECR analyte, steady-state affinity model, pH 6.5
Procedure: (§2) Kinetics analyses of the binding of anti-EGFR antibodies to the ECR of mouse and human EGFR were performed on a Biacore T200 instrument (Biacore, GE Healthcare). Anti-hFc Ab or protein A/G (Thermo Fisher Scientific) was covalently attached to the surface of a CM5 sensor chip using an amine coupling kit (GE Healthcare). […] Binding kinetics were evaluated using a 1:1 Langmuir binding model. The dissociation constant (KD) values were calculated with a steady-state affinity model using the Biacore T200 evaluation software.

[9] = biological target: T2, mEGFR ECR (His6-Avi-tagged); assay: SPR (Biacore T200), mEGFR ECR analyte, steady-state affinity model
Procedure: as §2

[10] = biological target: T1, hEGFR ECR-His6-Avi-Biotin; assay: competition ELISA: hEGFR ECR on plate, IgG1 titrated in a mixture with EGF-mFc, bound EGF-mFc detected with anti-mFc-HRP; pH 6.5 [table]
[11] = biological target: T1, hEGFR ECR-His6-Avi-Biotin; assay: SPR (Biacore T200), hEGFR ECR analyte, steady-state affinity model
Procedure: as §2

[12] = biological target: T1, hEGFR ECR-His6-Avi-Biotin; assay: SPR (Biacore T200), antibody captured, hEGFR ECR analyte, steady-state affinity model, pH 7.4
Procedure: as §2

[13] = biological target: T3, human EGFR, full-length, on A-431 cells …; assay: flow cytometry on A-431 cells, pH 6.5
Procedure: as §1

[14] = biological target: T3, human EGFR, full-length, on A-431 cells …; assay: flow cytometry on A-431 cells, pH 7.4
Procedure: as §1

[15] = biological target: T1, hEGFR ECR-His6-Avi-Biotin; assay: SPR (Biacore T200), antibody captured, hEGFR ECR analyte, steady-state affinity model, pH 6.5
Procedure: as §2

[16] = biological target: T3, human EGFR, full-length, on A-431 cells …; assay: flow cytometry on CT26-hEGFR cells
Procedure: as §1

[17] = biological target: T3, human EGFR, full-length, on A-431 cells …; assay: flow cytometry on A-431 cells
Procedure: as §1

[18] = biological target: T3, human EGFR, full-length, on A-431 cells …; assay: flow cytometry on CT26-hEGFR cells, pH 7.4
Procedure: as §1

[19] = biological target: T1, hEGFR ECR-His6-Avi-Biotin; assay: phage ELISA: hEGFR ECR on plate, phage display Fab titrated, anti-M13-HRP; EC50 at pH 7.4 over EC50 at pH 6.5 [table]
[20] = biological target: T1, hEGFR ECR-His6-Avi-Biotin; assay: competition ELISA: hEGFR ECR on plate, IgG1 titrated in a mixture with EGF-mFc, bound EGF-mFc detected with anti-mFc-HRP; pH 7.4 [table]
[21] = biological target: T1, hEGFR ECR-His6-Avi-Biotin; assay: phage ELISA: biotinylated hEGFR ECR captured on streptavidin plate, phage display scFv titrated, anti-M13-HRP; pH 6.0
[22] = biological target: T1, hEGFR ECR-His6-Avi-Biotin; assay: phage ELISA: biotinylated hEGFR ECR captured on streptavidin plate, phage display scFv titrated, anti-M13-HRP; pH 7.4

B1: 11A10 (full-length human IgG1 form) (antibody, V domains shown)
VH: EVQLVQSGAEVKKPGESLMISCKGSGYSFTNHWIGWVRQMPGKGPEWMGIINPRDSDARYSPSFRGQVTFSVDRSTNTAYLQWTSLKPSDTGMYFCARRDIVVVPAATPSYYYYGMDVWGQGTTVTVSS
VL: DIQLTQSPSSLSASVGDSVTITCRPRQSSSRFVNWYQHKPGKAPKLLISNASDLQHGVPSRFSGRGAGTEFTLTIDSLQPDDVATYYCEQSYRFPHMFGQGTKVEIKR
With B1 the EC50 [1] was 1.36 nM and the EC50 [2] was 58.9 nM.

B2: G532^V (human IgG1 form) (antibody, V domains shown)
VH: QVQLVQSGAEVKRPGSSVKVSCKASGGISDGSAISWVRQAPGQGLEWMGGIRWWGGITNYAQKFQGRVTITADESTSTAYMELSSLRSEDTAVYYCARDSSLGYYDYFDYWGQGTLVTVSS
VL: QPVLTQPPSVSAAPGQTARITCGGNNIGEKHVQWYQQRPGQAPVLVIYYDSTRPSGIPERFSGSNSGNTAALTINSVEAGDEADYYCQAWDDYDPVVFGGGTQLTVLG
notes: G532 with LCDR1 E32H and LCDR2 D52S, D53T
With B2 the “EC50 ratio (pH 7.4/pH 6.5)” value [3] was 1.64, the “fold lower binding pH-dependency than G532” value [3] was ~5 fold and the EC50 [4] was 0.517 nM. It also gave an EC50 [5] of 0.316 nM.

B3: G532 (human IgG1 form) (antibody, V domains shown)
VH: QVQLVQSGAEVKRPGSSVKVSCKASGGISDGSAISWVRQAPGQGLEWMGGIRWWGGITNYAQKFQGRVTITADESTSTAYMELSSLRSEDTAVYYCARDSSLGYYDYFDYWGQGTLVTVSS
VL: QPVLTQPPSVSAAPGQTARITCGGNNIGEKEVQWYQQRPGQAPVLVIYYDDDRPSGIPERFSGSNSGNTAALTINSVEAGDEADYYCQAWDDYDPVVFGGGTQLTVLG
B3 gave a Kd [6] of 1810 nM, an EC50 [7] of 0.787 nM and a Kd [8] of 547 nM. For the same binder, the “KD ratio (pH 7.4/6.5)” value [9] was 3.31, the “EC50 ratio (pH 7.4/pH 6.5)” value [3] was 8.08 and the IC50 [10] was 20.6 nM. The “KD ratio (pH 7.4/6.5)” value [11] was 13.3, the Kd [12] was 3900 nM and the EC50 [4] was 5.58 nM. For the same binder, the EC50 [13] was 0.528 nM, the EC50 [14] was 13.7 nM and the Kd [15] was 294 nM. The EC50 [5] was 0.69 nM, the “EC50 ratio (pH 7.4/6.5)” value [16] was 19.4 and the “EC50 ratio (pH 7.4/6.5)” value [17] was 26. For the same binder, the EC50 [18] was 15.2 nM.

B4: WT G5V2 (phage display Fab form) (Fab, V domains shown)
VH: QVQLVQSGAEVKRPGSSVKVSCKASGGISDGSAISWVRQAPGQGLEWMGGIYFFNGNTNYAQKFQGRVTITADESTSTAYMELSSLRSEDTAVYYCARDSSLGYYDYFDYWGQGTLVTVSS
VL: QPVLTQPPSVSAAPGQTARITCGGNNIGEKYVQWYQQRPGQAPVLVIYYDDDRPSGIPERFSGSNSGNTAALTINSVEAGDEADYYCQAWDDYDPVVFGGGTQLTVL
With B4 the “EC50 ratio (pH 7.4/pH 6.5)” value [19] was 1.21.

B5: G532^Ctrl (human IgG1 form) (antibody, V domains shown)
VH: QVQLVQSGAEVKRPGSSVKVSCKASGGISDGSAISWVRQAPGQGLEWMGGIRWWGGITNYAQKFQGRVTITADESTSTAYMELSSLRSEDTAVYYCARDSSLGYYDYFDYWGQGTLVTVSS
VL: QPVLTQPPSVSAAPGQTARITCGGNNIGENHVQWYQQRPGQAPVLVIYYDSTRPSGIPERFSGSNSGNTAALTINSVEAGDEADYYCQAWDDYDPVVFGGGTQLTVLG
notes: G532^V with LCDR1 K31N; also called non-pH-dependent variant of G532
For B5, the Kd [6] was 743 nM, the EC50 [7] was 1.25 nM and the Kd [8] was 1270 nM. For the same binder, the “KD ratio (pH 7.4/6.5)” value [9] was 0.586, the “EC50 ratio (pH 7.4/pH 6.5)” value [3] was 0.759 and the IC50 [10] was 39.5 nM. For the same binder, the “KD ratio (pH 7.4/6.5)” value [11] was 0.599, the Kd [12] was 243 nM and the IC50 [20] was 61.8 nM. For the same binder, the EC50 [4] was 0.635 nM, the EC50 [13] was 0.771 nM and the EC50 [14] was 0.554 nM. The Kd [15] was 406 nM, the EC50 [5] was 0.837 nM and the “EC50 ratio (pH 7.4/6.5)” value [16] was 0.469. For the same binder, the “EC50 ratio (pH 7.4/6.5)” value [17] was 0.718 and the EC50 [18] was 0.587 nM.

B6: G5V2 Y32H (phage display Fab form) (Fab, V domains shown)
VH: QVQLVQSGAEVKRPGSSVKVSCKASGGISDGSAISWVRQAPGQGLEWMGGIYFFNGNTNYAQKFQGRVTITADESTSTAYMELSSLRSEDTAVYYCARDSSLGYYDYFDYWGQGTLVTVSS
VL: QPVLTQPPSVSAAPGQTARITCGGNNIGEKHVQWYQQRPGQAPVLVIYYDDDRPSGIPERFSGSNSGNTAALTINSVEAGDEADYYCQAWDDYDPVVFGGGTQLTVL
notes: Kabat numbering (31st letter by plain count)
For B6, the “EC50 ratio (pH 7.4/pH 6.5)” value [19] was 0.61.

B7: 14C07 (phage display scFv form) (scFv, V domains shown)
VH: QVQLVQSGAEVKRPGSSVKVSCKASGGTFSSYAISWVRQAPGQGLEWMGGIIPIFGTANYAQKFQGRVTITADESTSTAYMELSSLRSEDTAVYYCARDSSSGWYDYFDYWGQGTLVTVSS
VL: QPVLTQPPSVSAAPGAMARITCESPDIGSKSVQWYQQRPGQAPILVIYYDDDRPSGIPERFSGSNSGNTAALTINWVEPEDEADYYCQAWDDSDPVVFGGGTQLTVL
With B7 the “EC50 (read off the curve)” value [21] was ~1e+11 cfu/ml.

B8: 11C04 (scFv, part only; not given: scFv linker, domain order, phage fusion, V domains shown, not shown: another chain or arm of the molecule; large carriers; small tags and cut ends)
VH: EVQLVQSGAEVKKPGASVKVSCKASGYTFTSYYMHWVRQAPGQGLEWMGIINPSGGSTSYAQKFQGRVTMTRDTSTSTVYMELSSLRSEDTAVYYCARDLEMAYYDILYGMDVWGQGTLVTVSS
VL: QSALTQPASVSGSAGQSITISCTGTTSDIGRYDYVSWYQQHPGQVPKLMIYDVSNRPSGVSDRFSGSKSGNTASLTISGLQTEDEADYYCSSYTTSGTRVFGGGTKLTVL
For B8, the EC50 (read off the curve) [22] was 1e+10 cfu/ml and the EC50 (read off the curve) [21] was 1e+10 cfu/ml.
